Experimental findings from PMC4937829 (Nature structural & molecular biology, 2016) are described below.

B4: Spy 29-124 (wild type) (domain or fragment, Escherichia coli)
chain: SFKDLNLTDAQKQQIREIMKGQRDQMKRPPLEERRAMHDIIASDTFDKVKAEAQIAKMEEQRKANMLAHMETQNKIYNILTPEQKKQFNANFEKRLT

In data set [1] the target is B4. Kind of data set: other fluorescence titration.
The target in data set [2] is T1, Spy H96L 29-124 (Escherichia coli, UniProt P77754 52-147, H96L).
T1 sequence: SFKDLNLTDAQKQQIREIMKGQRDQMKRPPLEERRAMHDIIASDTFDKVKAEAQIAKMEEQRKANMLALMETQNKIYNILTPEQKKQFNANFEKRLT
Briefly: crystal structure.

In data set [3] the target is B4. Kind of data set: crystal structure.
Data set [4] deals with the molecule itself. Kind of data set: crystal structure.

B1: Im7 L18A L19A L37A H40W (natural protein, E. coli, UniProt Q03708 1-87, looked up)
chain: MELKNSISDYTEAEFVQAAKEIEKENVAATDDVLDVALEWFVKITEHPDGTDLIYYPSDNRDDSPEGIVKEIKEWRAANGKPGFKQG
On to B1, for which the binding result in data set [1] is listed as “binds”.

B2: wild-type (WT) E. coli Im7 (natural protein, UniProt Q03708 1-87, looked up)
chain: MELKNSISDYTEAEFVQLLKEIEKENVAATDDVLDVLLEHFVKITEHPDGTDLIYYPSDNRDDSPEGIVKEIKEWRAANGKPGFKQG
On to B2, for which the binding result in data set [2] is on record as “binds”.

B3: Im7 L18A L19A L37A (natural protein, E. coli, UniProt Q03708 1-87, looked up)
chain: MELKNSISDYTEAEFVQAAKEIEKENVAATDDVLDVALEHFVKITEHPDGTDLIYYPSDNRDDSPEGIVKEIKEWRAANGKPGFKQG
Regarding B3, in data set [2], the binding result was “binds”.
In the case of SISDYTEAEFVQLLKEIEKENVAATDDVLDVLLEHFVKIT [Im7 6-45 peptide], the binding result in data set [3] was “binds”.
Turning to B4, the binding result in data set [4] is “binds”.
Regarding Ac-ELFRQFYQLDAYPSGAWYYVPLGTQYTDAP-NH2 [bovine alpha casein S1 148-177 peptide], the binding result in data set [3] was “binds”.
